Patent publication US20150320848A1

Assays:
Assay in all cases: REVEAL MHC-peptide binding assay; score relative to positive control
HLA-DR1 = target: HLA-DR1
HLA-DR2 = target: HLA-DR2
HLA-DR4 = target: HLA-DR4
HLA-DR7 = target: HLA-DR7
HLA-DR5 = target: HLA-DR5

Measured: binding score (% compared to the positive control)

B1: GALNT7-001 (peptide)
peptide: GNQLFRINEANQLMQ
not listed: HLA-DR5
> 15%: all other assays above

B2: ERGIC1-001 (peptide)
peptide: FEGQFSINKVPGNFHVS
> 15%: HLA-DR4 | HLA-DR5
